# Measurements reported in patent US20160264649A1.
# Columns and labels:
# Assay in all cases: cell-based or functional assay
# [1] = target: HIV-1 92RW008 Env (HIV-1)
# [2] = target: HIV-1 92RW020 Env (HIV-1)
# [3] = target: HIV-1 92RW021 Env (HIV-1)
# [4] = target: HIV-1 92RW024 Env (HIV-1)
# [5] = target: HIV-1 92RW026 Env (HIV-1)
# [6] = target: HIV-1 92UG031 Env (HIV-1)
# [7] = target: HIV-1 92UG037 Env (HIV-1)
# [8] = target: HIV-1 93RW029 Env (HIV-1)
# [9] = target: HIV-1 94KE105 Env (HIV-1)
# [10] = target: HIV-1 94UG103 Env (HIV-1)
# [11] = target: HIV-1 MGRM-A-002 Env (HIV-1)
# [12] = target: HIV-1 MGRM-A-003 Env (HIV-1)
# [13] = target: HIV-1 MGRM-A-005 Env (HIV-1)
# [14] = target: HIV-1 MGRM-A-006 Env (HIV-1)
# [15] = target: HIV-1 MGRM-A-007 Env (HIV-1)
# [16] = target: HIV-1 MGRM-A-009 Env (HIV-1)
# [17] = target: HIV-1 MGRM-A-010 Env (HIV-1)
# [18] = target: HIV-1 MGRM-A-011 Env (HIV-1)
# [19] = target: HIV-1 MGRM-A-012 Env (HIV-1)
# [20] = target: HIV-1 MGRM-A-013 Env (HIV-1)
# [21] = target: HIV-1 MGRM-A-014 Env (HIV-1)
# HIV-1 VLGCA1 Env (HIV-1) = target: HIV-1 VLGCA1 Env (HIV-1)
# 1443_C16 (PG16) (TCN-116) (antibody), sequence (VH): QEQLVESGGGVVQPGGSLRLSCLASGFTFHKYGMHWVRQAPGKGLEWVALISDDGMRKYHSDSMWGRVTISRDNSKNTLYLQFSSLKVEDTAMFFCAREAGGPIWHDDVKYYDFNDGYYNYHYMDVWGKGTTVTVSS
# 1443_C16 (PG16) (TCN-116) (antibody), sequence (VL): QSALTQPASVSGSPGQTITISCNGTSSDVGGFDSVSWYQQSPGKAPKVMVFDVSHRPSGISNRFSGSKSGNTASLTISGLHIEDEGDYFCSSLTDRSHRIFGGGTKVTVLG
Substance,neutralization IC50 [1],neutralization IC50 [2],neutralization IC50 [3],neutralization IC50 [4],neutralization IC50 [5],neutralization IC50 [6],neutralization IC50 [7],neutralization IC50 [8],neutralization IC50 [9],neutralization IC50 [10],neutralization IC50 [11],neutralization IC50 [12],neutralization IC50 [13],neutralization IC50 [14],neutralization IC50 [15],neutralization IC50 [16],neutralization IC50 [17],neutralization IC50 [18],neutralization IC50 [19],neutralization IC50 [20],further results
1495_C14 (PGC14) (antibody),37 µg/mL,46 µg/mL,> 50 µg/mL,> 50 µg/mL,> 50 µg/mL,> 50 µg/mL,> 50 µg/mL,42 µg/mL,> 50 µg/mL,> 50 µg/mL,> 50 µg/mL,> 50 µg/mL,> 50 µg/mL,> 50 µg/mL,> 50 µg/mL,> 50 µg/mL,> 50 µg/mL,> 50 µg/mL,> 50 µg/mL,> 50 µg/mL,neutralization IC50 [21]: > 50 µg/mL; neutralization IC50 (HIV-1 VLGCA1 Env (HIV-1)): > 50 µg/mL
1443_C16 (PG16) (TCN-116) (antibody),0.002 µg/mL,0.28 µg/mL,0.11 µg/mL,0.08 µg/mL,0.03 µg/mL,0.43 µg/mL,0.01 µg/mL,3.83 µg/mL,6.13 µg/mL,0.04 µg/mL,0.004 µg/mL,2.65 µg/mL,0.09 µg/mL,> 50 µg/mL,5.91 µg/mL,0.01 µg/mL,0.004 µg/mL,0.24 µg/mL,20.7 µg/mL,0.09 µg/mL,neutralization IC50 [21]: 20.3 µg/mL; neutralization IC50 (HIV-1 VLGCA1 Env (HIV-1)): 0.18 µg/mL
